This note sets out measurements from the supplement of paper PMC9170038.

The test system of data set [1] is MS2 coat protein. Description: apparent KD of MS2 coat protein, switch ON state; designed switch direction (-1 OFF switch, 1 ON switch): -1; higher = weaker reporter binding. Particulars: FMN input: 0 or 200 uM; Eterna round: R93 (includes R88 designs). The essentials:
(§1)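 Illumina sequencing clusters were used for on-chip transcription of designed RNA switches. Titration with SNAP-549-labelled MS2 coat protein followed, in twofold steps from 0.7 or 1.5 nM to 3 µM in 100 mM Tris-HCl pH 7.5, 80 mM KCl, 4 mM MgCl2, without or with constant ligand. Apparent KD is each design's median of fits to normalised cluster binding curves.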

The test system of data set [2] is MS2 coat protein. Nature of the data set: apparent KD of MS2 coat protein, switch OFF state (with FMN for OFF switches, without FMN for ON switches); designed switch direction (-1 OFF switch, 1 ON switch): -1; higher = weaker reporter binding. The conditions noted are these: FMN input: 0 or 200 uM; Eterna round: R93 (includes R88 designs). The essentials:
as §1

As for “AACAGUACAGGAUAUACAUGAGGAUCACCCAUGUGAGCAUUAAAAGGCGUACCUCAAAGUAGAAGGGUACUGGA [JL Maslow Revisted mod 23]”, the “apparent KD of MS2 coat protein” value with MS2 coat protein [1] is 107 nM; in the data set with MS2 coat protein [2], 18.9 nM.

For “AAAAAGGCAGGAUAUGCAUACACACGAAAAAAAACGCUGGGACAUGAGGAUCACCCAUGUAGAAGGGCCAAAAA [Dora Explored 10 - Jieux - Exclusion 2]”, the “apparent KD of MS2 coat protein” value amounted to 57.2 nM with MS2 coat protein [1] and 38.6 nM with MS2 coat protein [2].

With “AAAAAGUGAGGAUAUACAUGAGGAUCACCCAUGUUAAAAAAGGAAAAAAAAAAAAAAUGUAGAAGGCGCAAAAA [water's exclusion 3]”, the “apparent KD of MS2 coat protein” value turned out to be 36.9 nM in the data set with MS2 coat protein [1] and 36 nM in the data set with MS2 coat protein [2].

Turning to “AAACGUAGAGGAUAUACAAAAAGAUUACGAAAGUAAUCGGGACAUGAGGAUCACCCAUGUAGAAGGCUACGAAA [Mod2 of Meechl 64% 2]”, the “apparent KD of MS2 coat protein” value with MS2 coat protein [1] was found to be 36.7 nM; in the data set with MS2 coat protein [2], 94.5 nM.

Turning to “AAGAACUGAGGAUAUACAUGAGGAUCACCCAUGUAAAAGAAAGAGGGAAAAGAGAAAAGUAGAAGGCAGAAGAA [Berenice II]”, the “apparent KD of MS2 coat protein” value in the data set with MS2 coat protein [1] was 24.9 nM; with MS2 coat protein [2], 32.4 nM.

Regarding “AGUUGGCGAGGAUAUACAUGAGGAUCACCCAUGUGAGAGUAAGAAGUGAGAAAGAGAAGUAGAAGGCGCUGACA [Ruby 55]”, the “apparent KD of MS2 coat protein” value with MS2 coat protein [1] stood at 46.5 nM; with MS2 coat protein [2], 220 nM.

Take “UAGAUACAUGAGGAUCACCCAUGUGAGGAUAUCGUUUGUACUAAUCUUUUAGUAUUUUCGAGAAGGCACAUAUA [Ex1Try2_Neo]”: the “apparent KD of MS2 coat protein” value in the data set on MS2 coat protein [1] was determined as 48.5 nM; in the data set on MS2 coat protein [2] it was 143 nM.

Regarding “AAGAAUGGAGGAUAUACAUGAGGAUCACCCAUGUAAAAGAAAGAAGGGAAAGAGAAAAGUAGAAGGCCAAAGAA [Khuinefertemre Taharqa]”, the “apparent KD of MS2 coat protein” value in the data set on MS2 coat protein [1] was determined as 26.5 nM; in the data set on MS2 coat protein [2], 53.8 nM.

On to “AAAAGUAGAGGAUAUACAUGAGGAUCACCCAUGUAGAAAGGAAGUGUAUAUAUGGCGUGUAGAAGGCUGCAUGA [Power strip]”, for which the “apparent KD of MS2 coat protein” value was 29.3 nM with MS2 coat protein [1] and 32.3 nM in the data set on MS2 coat protein [2].

Regarding “CUCUUGUCAGGAUAUCAAAGAAAAGAAAAGAAAGAAAAGAAUGAGAAGGGACAUGAGGAUCACCCAUGUAAGAA [EteRNA is fun!]”, the results for the “apparent KD of MS2 coat protein” value with MS2 coat protein [1] and with MS2 coat protein [2] were 32.1 nM and 34.8 nM, respectively.

As for “ACGUGACAUGAGGAUCACCCAUGUUAGGAUAUGCGAAUUCAAAAUCAGCUAACGCUGAGCAGAAGGAACAUGGU [Esriange]”, the “apparent KD of MS2 coat protein” value in the data set with MS2 coat protein [1] amounted to 36.2 nM; in the data set on MS2 coat protein [2], 88.9 nM.

Regarding “ACUUAGACAGGAUAUACGUGAGUGGAAAAAGUGUUUCCACUACAUGAGGAUCACCCAUGUAGAAGGGUCUAAGA [Ex2 Design 181: Random 6B]”, the “apparent KD of MS2 coat protein” value in the data set with MS2 coat protein [1] turned out to be 48.8 nM; with MS2 coat protein [2], 82.3 nM.

Consider “UCCACACAUGAGGAUCACCCAUGUGAGGAUAUCUAGAAAACCUCAUGUAAAAAAAUCUAGAGAAGGCAUAUGAA [Design 91: Pseudoknot A]”, for which the “apparent KD of MS2 coat protein” value with MS2 coat protein [1] came out at 24.1 nM; with MS2 coat protein [2] it was 18.6 nM.

For “CUCAAGUAAGGAUAUCAAAGAAAAGAAGAGAAAGAAAAGAAUGAGAAGGUACAUGAGGAUCACCCAUGUAAGAA [EteRNA is fun!]”, the “apparent KD of MS2 coat protein” value in the data set with MS2 coat protein [1] was 35.2 nM; with MS2 coat protein [2], 23 nM.

With “AACAAACAUGAGGAUCACCCAUGUCAGGAUAUGCAAACAACAAACAACAAACAACAAAGCAGAAGGGAUAGGAA [63%, Olong, 4]”, the “apparent KD of MS2 coat protein” value in the data set with MS2 coat protein [1] amounted to 27.1 nM; in the data set on MS2 coat protein [2] it was 21.2 nM.

As for “AAGAAGGUAGGAUAUACUAGGGCAACUAAUGCAAAGAUAGGACAUGAGGAUCACCCAUGUAGAAGGGCCAGAAA [JR_Exc002_Sub403]”, the figures for the “apparent KD of MS2 coat protein” value with MS2 coat protein [1] and in the data set with MS2 coat protein [2] were 48 nM and 59.6 nM, respectively.

As for “AAAAAGUGAGGAUAUACAUGAGGAUCACCCAUGUGUAUAAAAAAAUACACAAAAGAAAGUAGAAGGCACUAAAA [Ex 3 Hot]”, the “apparent KD of MS2 coat protein” value with MS2 coat protein [1] turned out to be 21.1 nM; in the data set on MS2 coat protein [2] it was 58.6 nM.

As for “AAAAAGGGAGGAUAUACAUGAGGAUCACCCAUGUAACAGACGAAAAAGAGUCUGAAAUGUAGAAGGCCCAAAAA [65%, Moding Exclusion3-cac2, 5]”, the “apparent KD of MS2 coat protein” value in the data set with MS2 coat protein [1] was found to be 24.6 nM; with MS2 coat protein [2], 48.4 nM.

As for “AACUGGGCAGGAUAUACAUGAGGAUCACCCAUGUAAAGAAAAGAAAGAUCCGAGGAAAGUAGAAGGGCCUGGAA [Variant 4 of Mod 1 of Ex3 sub 3, by Tesla's Dusciple Round 1]”, the “apparent KD of MS2 coat protein” value with MS2 coat protein [1] amounted to 55.6 nM; with MS2 coat protein [2], 91.3 nM.

Consider “AGCUAGUGAGGAUAUACGAAUCUGUCAAAAGACGGAAGGGAACAUGAGGAUCACCCAUGUAGAAGGCACUAGCA [Web Mod 74% 6]”, for which the entries for the “apparent KD of MS2 coat protein” value in the data set on MS2 coat protein [1] and in the data set with MS2 coat protein [2] were 31.9 nM and 23.2 nM, respectively.

As for “AAAAAACAUGAGGAUCACCCAUGUCAGGAUAUGCUCAGCAAUAUUAAAAUAAAGAACGGUAGAAGGGACAGAAA [Bilbo Confounded 23 - Jieux - Exclusion 1]”, the “apparent KD of MS2 coat protein” value was determined as 35.8 nM with MS2 coat protein [1] and 34.7 nM in the data set on MS2 coat protein [2].

With “AAAAAGGUAGGAUAUACAUGAGGAUCACCCAUGUAAAAAAAAACAGAAAAAAACAAAUGUAGAAGGGCCAAAAA [Ex3 Malc#5]”, the “apparent KD of MS2 coat protein” value came out at 25.9 nM in the data set with MS2 coat protein [1] and 35.6 nM in the data set on MS2 coat protein [2].

On to “AAGAACGAAGGAUAUACAUGAGGAUCACCCAUGUAAAAGAAAGAAAAGGGAAAGAAAAGUAGAAGGUCGAAGAA [Banenre Merenptah]”, for which the “apparent KD of MS2 coat protein” value with MS2 coat protein [1] worked out at 21.5 nM; with MS2 coat protein [2] it was 33.1 nM.

With “GCUGUGCUAGGAUAUACAUGAGGAUCACCCAUGUGAGAGAAAAAAGUGAGAAAGAAAAGUAGAAGGAGCGUAGG [salish99-ex3-100]”, the “apparent KD of MS2 coat protein” value in the data set with MS2 coat protein [1] was 29.1 nM; in the data set with MS2 coat protein [2] it was 59.2 nM.

As to “AAAACUGGAGGAUAUACGUACAUGUCAAAAGACGUGAAGGGACAUGAGGAUCACCCAUGUAGAAGGCUAGAAAA [JL Stem Breaker 8]”, the results for the “apparent KD of MS2 coat protein” value with MS2 coat protein [1] and in the data set with MS2 coat protein [2] were 74.2 nM and 28.6 nM, respectively.

Regarding “AAGAAUCGAGGAUAUACAAGAAAGAAAGAAAAGAAAAGAAAACAUGAGGAUCACCCAUGUAGAAGGCGAUAGAA [EteRNA is fun!]”, the “apparent KD of MS2 coat protein” value in the data set on MS2 coat protein [1] is 22 nM; in the data set on MS2 coat protein [2], 24.6 nM.

On to “GACAUGCUAGGAUAUACAGGACAAAUUGGGCAUCCGCAUGGACAUGAGGAUCACCCAUGUAGAAGGAGUAGAAA [Inonmatixe]”, for which the “apparent KD of MS2 coat protein” value with MS2 coat protein [1] was 368 nM; with MS2 coat protein [2], 798 nM.

Regarding “ACCAAUGCAGGAUAUACAUGAGGAUCACCCAUGUAUAACCUACAUAGAUGAUAAAAAUGUAGAAGGGCAUUGGA [EX3 232: Super Stable 32]”, the “apparent KD of MS2 coat protein” value in the data set with MS2 coat protein [1] was determined as 16 nM; in the data set with MS2 coat protein [2] it was 20.3 nM.

Take “AGUUGGCGAGGAUAUACAUGAGGAUCACCCAUGUAAAAUAAAUAAAAAAUAAAAGGGAGUAGAAGGCGCUGACA [73%, Moding Norbert Elias, 16]”: the “apparent KD of MS2 coat protein” value worked out at 41.9 nM with MS2 coat protein [1] and 53.4 nM in the data set on MS2 coat protein [2].

Regarding “AGUUGGCGAGGAUAUACAUGAGGAUCACCCAUGUGAGAGAAAAAAGUGAGAAAGAAAAGUAGAAGGCGCUGACU [salish99-ex3-06]”, the figures for the “apparent KD of MS2 coat protein” value with MS2 coat protein [1] and with MS2 coat protein [2] were 46.4 nM and 307 nM, respectively.

As for “AAAAAACAUGAGGAUCACCCAUGUUAGGAUAUCCUGCAGAAAAAAAAAAAAAACUGCAGGAGAAGGAGCAAGGA [Banishment 3 - Jieux - Exclusion 1]”, the results for the “apparent KD of MS2 coat protein” value with MS2 coat protein [1] and with MS2 coat protein [2] were 25.8 nM and 44.5 nM, respectively.

Consider “AAAAUGUGAGGAUAUGUACGAAAAAAUAAAAAAAUAAAAGUACAGAAGGCACAUGAGGAUCACCCAUGUGGGAA [EX4 399: Minimal 12]”, for which the “apparent KD of MS2 coat protein” value in the data set on MS2 coat protein [1] was found to be 158 nM; with MS2 coat protein [2], 94 nM.

For the sequence “AAAACUCGAGGAUAUACGAACAUGUCAAAAGACGUGAAGGGACAUGAGGAUCACCCAUGUAGAAGGCGAGAAAA [Mat - Exclusion 2 - JL-Eli mod - D45]”, the figures for the “apparent KD of MS2 coat protein” value in the data set with MS2 coat protein [1] and in the data set with MS2 coat protein [2] were 55.4 nM and 123 nM, respectively.

Consider “AGAAACCUAGGAUAUACAUGAGGAUCACCCAUGUAAAGAAAGAAGGGAGCCACAAGAAGUAGAAGGAGGAAGAA [JR_Exc003_Sub005]”, for which the results for the “apparent KD of MS2 coat protein” value in the data set with MS2 coat protein [1] and in the data set with MS2 coat protein [2] were 16.9 nM and 33.4 nM, respectively.

Regarding “AAAAAACAUGAGGAUCACCCAUGUAAGGAUAUGCUAUGGAAAAUAAAAAUAAAACAUAGCAGAAGGUACACCAA [Amethyst 81]”, the results for the “apparent KD of MS2 coat protein” value in the data set on MS2 coat protein [1] and in the data set on MS2 coat protein [2] were 18.9 nM and 27.3 nM, respectively.

For “AAAUUGUCAGGAUAUCGUAUAAUAUGGAAAACAUAGAGAUACGAGAAGGGACAUGAGGAUCACCCAUGUAAAAC [May 96]”, the “apparent KD of MS2 coat protein” value was determined as 36.1 nM in the data set on MS2 coat protein [1] and 31.1 nM with MS2 coat protein [2].

As for “AAGAAGGCAGGAUAUACUAAAGAAAUGAAAAGAAAUAAAGAACAUGAGGAUCACCCAUGUAGAAGGGCCAAGAA [Khakherewre]”, the “apparent KD of MS2 coat protein” value in the data set with MS2 coat protein [1] came to 35.2 nM; in the data set with MS2 coat protein [2], 24.1 nM.

For the sequence “GAAAAACAUGAGGAUCACCCAUGUCAGGAUAUCGAAAAAAAUAAAAAAGAAAAGAAAACGAGAAGGGACAAAAG [Mat - Same state - Mayanna Mod - D112]”, the results for the “apparent KD of MS2 coat protein” value in the data set on MS2 coat protein [1] and in the data set on MS2 coat protein [2] were 31.6 nM and 47.1 nM, respectively.

On to “AAGUACUCAGGAUAUACAUGAGGAUCACCCAUGUGAUAAAAGCGUAAAAAACGCACAUGUAGAAGGGAGUACAA [JL In thr Red Again 2]”, for which the results for the “apparent KD of MS2 coat protein” value in the data set with MS2 coat protein [1] and in the data set with MS2 coat protein [2] were 140 nM and 84 nM, respectively.
